The source of these data is paper PMC5027281 (Nature Communications, 2016).

For this test, the target named is Recombinant full-length HA of A/Vietnam/1203/04 (H5-VN04) (Influenza A virus A/Vietnam/1203/2004 …, UniProt Q5EP31). The experiment in a line: BLI. The conditions noted are these: both partners purified.

B1: 3I14 VLD94N variant IgG1 (antibody, V domains shown)
VH: QVQLLESGGGVVQPGRSLRLSCAASGFTFSNYGMHWVRQAPGKGLEWVAIISFDGSKKYYANSVKGRSTISRDNSKNTLSLQMNSLGPEDTALYYCAKLPSPYYFDSRFVWVAASAFHFWGQGILVTVSS
VL: NFMLTQPPSASGTPGQRVTISCSGSSSNIGGNTVHWFQQLPGTAPKLLIYTNSLRPSGVPDRFSGSKSGTSASLAISGLQSEDEADYYCAAWDNSLNGQVFGGGTKLTVL
As usually defined, the Kd is the free concentration of one partner at which half of the binding sites on the other are occupied at equilibrium, for simple one-to-one binding. The koff is a measure of how fast the partners let go of each other. Broadly, the kon is the second-order rate constant of association. With B1, the Kd is 0.187 nM, the koff turned out to be 7.74e-05 s⁻¹ and the kon is 383000 M⁻¹ s⁻¹.
